Data on one substance can be found in US20110098449A1.

For this experiment, the target named is Human recombinant hepatocyte growth factor activator (HGFA) (human) (UniProt Q04756). Kind of experiment: cell-based or functional assay.
Sequence of UniProt Q04756 (Q04756 373-655 limits assumed): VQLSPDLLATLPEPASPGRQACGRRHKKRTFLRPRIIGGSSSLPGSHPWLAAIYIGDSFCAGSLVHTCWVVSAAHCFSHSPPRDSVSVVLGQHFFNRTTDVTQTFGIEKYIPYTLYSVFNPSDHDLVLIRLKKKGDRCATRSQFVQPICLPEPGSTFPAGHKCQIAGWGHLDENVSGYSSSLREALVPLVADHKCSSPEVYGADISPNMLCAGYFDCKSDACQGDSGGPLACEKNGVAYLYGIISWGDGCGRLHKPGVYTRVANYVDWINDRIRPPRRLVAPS

Take “Soluble HAI-1B (hepatocyte growth factor activator inhibitor-1B) (from UniProt O43278 36-465)”: the inhibition of HGFA-mediated 125I-proHGF conversion (SDS-PAGE) was 1 µM.
